Assay results as given in publication PMC4666130 (Molecular Biology of the Cell, 2015).

Biological target: T1, claudin-19 (human CLDN19), expressed in HEK293 cells (human, UniProt Q8N6F1 1-224)
T1 sequence (looked up): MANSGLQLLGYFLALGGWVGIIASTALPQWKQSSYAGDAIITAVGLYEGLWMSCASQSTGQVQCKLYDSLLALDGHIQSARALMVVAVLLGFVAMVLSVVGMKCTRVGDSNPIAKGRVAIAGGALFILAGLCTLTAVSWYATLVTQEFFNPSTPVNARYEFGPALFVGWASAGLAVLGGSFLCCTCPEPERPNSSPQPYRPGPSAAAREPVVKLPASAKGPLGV
Experiment: cross-linking

B1: claudin-16 (human CLDN16), expressed in HEK293 cells (natural protein, UniProt Q9Y5I7 1-235, looked up)
chain: MRDLLQYIACFFAFFSAGFLIVATWTDCWMVNADDSLEVSTKCRGLWWECVTNAFDGIRTCDEYDSILAEHPLKLVVTRALMITADILAGFGFLTLLLGLDCVKFLPDEPYIKVRICFVAGATLLIAGTPGIIGSVWYAVDVYVERSTLVLHNIFLGIQYKFGWSCWLGMAGSLGCFLAGAVLTCCLYLFKDVGPERNYPYSLRKAYSAAGVSMAKSYSAPRTETAKMYAVDTRV
In the case of B1, the “stoichiometry N” value is reported as 1 claudin-16 per claudin-19.
